These are literature values, as cited in paper PMC7060279.

Usually Kd stands for the equilibrium constant for the complex coming apart.

One data set deals with TLR4 (Homo sapiens) (UniProt O00206).
A further data set addresses TLR4/MD2 (Homo sapiens) (UniProt O00206).

HMGB1, sequence (P09429 whole entry): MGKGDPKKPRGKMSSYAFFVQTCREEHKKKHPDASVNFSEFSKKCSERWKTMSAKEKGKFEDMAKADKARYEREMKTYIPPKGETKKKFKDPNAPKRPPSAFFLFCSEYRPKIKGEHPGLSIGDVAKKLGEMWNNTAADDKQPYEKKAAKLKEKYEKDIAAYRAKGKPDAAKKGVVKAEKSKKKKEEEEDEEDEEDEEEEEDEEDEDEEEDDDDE
TLR4/MD2 (Homo sapiens), sequence (O00206 24-839, chain 1 of 2): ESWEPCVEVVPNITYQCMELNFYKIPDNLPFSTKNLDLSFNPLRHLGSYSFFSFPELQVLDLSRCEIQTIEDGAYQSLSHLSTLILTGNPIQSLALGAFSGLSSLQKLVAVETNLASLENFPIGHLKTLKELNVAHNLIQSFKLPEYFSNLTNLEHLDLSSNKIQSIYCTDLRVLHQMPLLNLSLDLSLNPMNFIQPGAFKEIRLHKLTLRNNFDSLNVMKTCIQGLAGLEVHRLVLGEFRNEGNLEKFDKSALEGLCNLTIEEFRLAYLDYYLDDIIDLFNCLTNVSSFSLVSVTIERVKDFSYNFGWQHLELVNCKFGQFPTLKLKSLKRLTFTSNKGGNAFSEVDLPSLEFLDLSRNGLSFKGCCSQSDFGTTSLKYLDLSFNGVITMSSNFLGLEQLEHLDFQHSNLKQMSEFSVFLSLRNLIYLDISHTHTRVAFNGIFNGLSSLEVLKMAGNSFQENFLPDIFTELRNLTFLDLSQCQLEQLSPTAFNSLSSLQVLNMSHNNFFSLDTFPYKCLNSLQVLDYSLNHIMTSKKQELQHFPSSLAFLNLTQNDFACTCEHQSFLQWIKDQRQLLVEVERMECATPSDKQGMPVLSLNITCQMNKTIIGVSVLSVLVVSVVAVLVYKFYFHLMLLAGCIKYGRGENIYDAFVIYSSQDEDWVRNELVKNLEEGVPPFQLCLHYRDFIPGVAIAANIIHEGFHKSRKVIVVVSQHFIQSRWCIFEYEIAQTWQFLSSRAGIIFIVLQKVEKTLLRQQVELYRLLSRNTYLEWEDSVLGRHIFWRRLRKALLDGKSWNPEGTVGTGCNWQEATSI
TLR4/MD2 (Homo sapiens), sequence (Q9Y6Y9 19-160, chain 2 of 2, further chain): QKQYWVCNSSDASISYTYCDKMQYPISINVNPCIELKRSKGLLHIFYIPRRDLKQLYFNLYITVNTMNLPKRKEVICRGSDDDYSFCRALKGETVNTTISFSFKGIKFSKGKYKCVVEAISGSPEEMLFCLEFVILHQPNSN
TLR4 (Homo sapiens), sequence (O00206 24-839): as the sequence (O00206 24-839, chain 1 of 2) above

Turning to HMGB1 (from UniProt P09429), the Kd in the data set with TLR4 (Homo sapiens) was 650 nM; with TLR4/MD2 (Homo sapiens) it was 420 nM.
